Reference: patent US20250340637A1 (ABPRO, published 2025)
Substitutions are numbered along the chain they refer to.

What was measured:
[1] = biological target: T1, HuCD3E (Homo sapiens, UniProt P07766 23-126, limits assumed); assay: SPR, Biacore 8K; CD3 Affinity column: Low
T1 construct: Recombinant analyte in SPR and antigen in ELISA; also called human CD3; human CD3 epsilon

[2] = biological target: T1, HuCD3E; assay: SPR, Biacore 8K; antibody captured, CD3E as analyte
Method: (§1) Initially, the affinity measurement of the anti-CD3 clones were determined using a Surface Plasmon Resonance (SPR) biosensor, Biacore 8K (GE Healthcare). The equilibrium dissociation constant (KD) was calculated from the ratio of kd over ka. To determine the contribution of a specific residue to antibody affinity and expression, paratope mapping was performed by screening of NNK libraries. In brief, the VH and VL of the parental antibody were searched by using NCBI Ig-Blast (www.ncbi.nlm.nih.gov/projects/igblast/) and CDRs were defined by the KABAT delineation system. All residues within CDRs were defined and mutated by NNK method. Each individual NNK library was generated per residue based on the FASEBA platform with a theoretical diversity at 20. The DNA encoding both heavy chain and light chain were inserted into a mammalian expression vector, transfected into CHO-S cells, and stable clones of highest expression were selected. Supernatants were collected from shaker flasks and purified on protein A affinity chromatography.
(§2) Affinity ranking. Binding between the parental and affinity-tuned bispecific antibodies and human and cyno target proteins (HER2 and CD3) was validated by ELISA, and a Biacore 8K was used to study the kinetics of the interaction between the antigen and the bispecific antibodies.

[3] = biological target: T2, CynoCD3E (cyno, UniProt Q95LI5 22-117, limits assumed); assay: as above
T2 construct: Recombinant analyte in SPR and antigen in ELISA; The construct is not described; also called cynomolgus CD3 epsilon
T2 sequence (looked up): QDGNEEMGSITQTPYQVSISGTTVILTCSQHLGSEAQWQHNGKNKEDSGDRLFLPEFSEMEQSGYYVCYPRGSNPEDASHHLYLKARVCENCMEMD
Method: as §1, §2

[4] = biological target: T1, HuCD3E; assay: SPR, Biacore 8K; antibody captured, CD3E as analyte; sample after 24 h at 42° C.
Method: as §1
(§3) Thermal stability. […] After incubation, the supernatant was centrifuged at 4500 rpm, and undissolved substances was discarded. Heat-treated, purified full-length bispecific antibodies were re-evaluated for their concentrations, and affinity ranking of samples with thermal treatment to human and cyno CD3 was conducted.
as §2

[5] = biological target: T2, CynoCD3E; assay: as above
Method: as §1, §3, §2

[6] = biological target: T1, HuCD3E; assay: SPR, Biacore 8K; CD3 Affinity column: Low; remark: listed apart in the source
[7] = biological target: T1, HuCD3E; assay: SPR, Biacore 8K; CD3 Affinity column: Med; lower end of the range
[8] = biological target: T1, HuCD3E; assay: SPR, Biacore 8K; CD3 Affinity column: Med; upper end of the range
[9] = biological target: T1, HuCD3E; assay: SPR, Biacore 8K; CD3 Affinity column: Med; lower end of the range; remark: listed apart in the source
[10] = biological target: T1, HuCD3E; assay: SPR, Biacore 8K; CD3 Affinity column: Med; upper end of the range; remark: listed apart in the source
[11] = biological target: T1, HuCD3E; assay: SPR, Biacore 8K; CD3 Affinity column: Low; remark: listed apart in the source
Method: as §1, §2

[12] = biological target: T1, HuCD3E; assay: SPR, Biacore 8K; CD3 Affinity column: Low; remark: listed apart in the source
[13] = biological target: T1, HuCD3E; assay: SPR, Biacore 8K; CD3 Affinity column: Hi
[14] = biological target: T1, HuCD3E; assay: SPR, Biacore 8K; CD3 Affinity column: Low; remark: listed apart in the source

T1 sequence (P07766 23-126 limits assumed): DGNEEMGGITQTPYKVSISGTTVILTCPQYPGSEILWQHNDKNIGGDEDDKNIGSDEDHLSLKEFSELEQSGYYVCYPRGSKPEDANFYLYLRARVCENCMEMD

B1: 32G4-V8-v5.5 (antibody, V domains shown)
VH: EVQLVESGGGLVQPGGSLKLSCAASGFTFNTYAMNWVRQAPGKGLEWVARIRSKYNNYATYYADSVKDRFTISRDDSKNTAYLQMNSLKTEDTAVYYCVRHGNFGNSYVSWFMYWGQGTLVTVSS
VL: QTVVTQEPSLTVSPGGTVTLTCRSSTGAVTTSNYANWVQQKPGQAFRGLIGGTNKRAPGVPARFSGSLLGGKAALTLSGVQPEDEAIYFCALWYSNLWVFGGGTKLTVL
Kd [1]: > 100 nM

B2: VH3 (SEQ ID NO: 18) + VL6 (SEQ ID NO: 19) (antibody, V domains shown)
VH: B1 VH with M113A
VL: B1 VL with T107E, V108I, L109K
notes: Humanized SP34 anti-CD3 variant; The sample heated at 42° C. is the same molecule and is marked under assay; also called VH3 + VL6
Kd [2]: 1.25 nM | koff [2]: 0.000286 s⁻¹ | kon [2]: 229000 M⁻¹ s⁻¹ | Kd [3]: 1.71 nM | koff [3]: 0.000469 s⁻¹ | kon [3]: 274000 M⁻¹ s⁻¹ | Kd [4]: 1.38 nM | koff [4]: 0.000343 s⁻¹ | kon [4]: 249000 M⁻¹ s⁻¹ | Kd [5]: 1.36 nM | koff [5]: 0.000489 s⁻¹ | kon [5]: 359000 M⁻¹ s⁻¹

B3: 47D10-V7-v5.5 (antibody, V domains shown)
VH: B1 VH
VL: B1 VL
Kd [6]: > 100 nM

B4: 47D10-V7-v5.4 (antibody, V domains shown)
VH: B1 VH with A63W, M113A
VL: B1 VL
Kd [7]: ≥ 10 nM | Kd [8]: ≤ 100 nM

B5: ABP100s.10.0.2 (antibody, V domains shown)
VH: B1 VH with G44C, Y62K, M113A
VL: B1 VL with G102C
Kd [9]: ≥ 10 nM | Kd [10]: ≤ 100 nM

B6: 32G4-V8-v5.6 (antibody, V domains shown)
VH: B1 VH with M113A
VL: B1 VL with A91M
Kd [1]: > 100 nM

B7: ABP100s.10.5.5 (antibody, V domains shown)
VH: B1 VH with G44C
VL: B1 VL with G102C
Kd [11]: > 100 nM

B8: ABP100s.10.0.6 (antibody, V domains shown)
VH: B1 VH with G44C, M113A
VL: B1 VL with A91M, G102C
Kd [12]: > 100 nM

B9: ABP100s.10.0.4 (antibody, V domains shown)
VH: B1 VH with G44C, A63W, M113A
VL: B1 VL with G102C
Kd [9]: ≥ 10 nM | Kd [10]: ≤ 100 nM

B10: ABP100s.10.5.6 (antibody, V domains shown)
VH: B1 VH with G44C, M113A
VL: B1 VL with A91M, G102C
Kd [11]: > 100 nM

B11: ABP100s.10.0.1 (antibody, V domains shown)
VH: B1 VH with G44C, M113G
VL: B1 VL with G102C
Kd [13]: < 10 nM

B12: ABP100s.10.6.6 (antibody, V domains shown)
VH: B1 VH with G44C, M113A
VL: B1 VL with A91M, G102C
Kd [1]: ≥ 100 nM

B13: VH3 (SEQ ID NO: 18) + VL4 (SEQ ID NO: 20) (antibody, V domains shown)
VH: B1 VH with M113A
VL: B1 VL with I87E, T107E, V108I, L109K
notes: Humanized SP34 anti-CD3 variant; The sample heated at 42° C. is the same molecule and is marked under assay; also called VH3 + VL4
Kd [2]: 1.72 nM | koff [2]: 0.000331 s⁻¹ | kon [2]: 192000 M⁻¹ s⁻¹ | Kd [3]: 2.14 nM | koff [3]: 0.000501 s⁻¹ | kon [3]: 234000 M⁻¹ s⁻¹ | Kd [4]: 1.5 nM | koff [4]: 0.000349 s⁻¹ | kon [4]: 232000 M⁻¹ s⁻¹ | Kd [5]: 1.9 nM | koff [5]: 0.00049 s⁻¹ | kon [5]: 257000 M⁻¹ s⁻¹

B14: ABP100s.10.0.5 (antibody, V domains shown)
VH: B1 VH with G44C
VL: B1 VL with G102C
Kd [12]: > 100 nM

B15: 47D10-V7-v5.6 (antibody, V domains shown)
VH: B1 VH with M113A
VL: B1 VL with A91M
Kd [6]: > 100 nM

B16: ABP100s.5.3 (antibody, V domains shown)
VH: B1 VH with M113A
VL: B1 VL with W93Y, T107E, V108I, L109K
Kd [14]: > 100 nM

B17: ABP100s.10.0.3 (antibody, V domains shown)
VH: B1 VH with G44C, S65K, M113A
VL: B1 VL with G102C
Kd [9]: ≥ 10 nM | Kd [10]: ≤ 100 nM

B18: ABP100s.10.4 (antibody, V domains shown)
VH: B1 VH with G44C, M113A
VL: B1 VL with G102C
Kd [13]: < 10 nM

B19: ABP100s.10.6.5 (antibody, V domains shown)
VH: B1 VH with G44C
VL: B1 VL with G102C
Kd [11]: ≥ 100 nM

B20: ABP100s.10.6 (antibody, V domains shown)
VH: B1 VH with G44C, M113A
VL: B1 VL with G102C
Kd [13]: < 10 nM

B21: ABP100s.10.5 (antibody, V domains shown)
VH: B1 VH with G44C, M113A
VL: B1 VL with G102C
Kd [13]: < 10 nM
